# Data from patent publication US8173600 (CHIESI FARMACEUTICI S P A, dated 2012).
# Numbered stars: 1 amine (or outer) side, 2 acyl side, 3 side chain; on linkers, the order of the positions; unused ones are H or OH. Square brackets hold non-standard residues; d marks the D form. * marks the point of attachment. 2,6‑difluorophenyl ester = C-terminal 2,6-difluorophenyl ester (dfp), Fc1cccc(F)c1O*; Asp(OMe) = aspartyl methyl ester, COC(=O)C[C@H](N[*:1])C(=O)[*:2]; Quinaldoyl = O=C(c1ccc2ccccc2n1)*
# T1: human recombinant caspase-2 (human, UniProt P42575 170-452, limits assumed)
# T1 sequence (looked up): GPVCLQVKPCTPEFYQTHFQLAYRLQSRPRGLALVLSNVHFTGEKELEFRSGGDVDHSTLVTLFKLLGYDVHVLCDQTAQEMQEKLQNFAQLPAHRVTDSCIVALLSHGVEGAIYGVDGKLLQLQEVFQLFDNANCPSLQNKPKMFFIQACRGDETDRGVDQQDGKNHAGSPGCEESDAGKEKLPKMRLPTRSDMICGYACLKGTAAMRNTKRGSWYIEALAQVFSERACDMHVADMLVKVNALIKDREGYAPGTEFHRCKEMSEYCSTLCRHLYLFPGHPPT
# B1: 2-Quinolinylcarbonyl-L-Valinyl-L-Aspartyl (methyl ester)-L-Valinyl-L-Alanyl-L-Aspartyl (methyl ester) 2,6-difluorophenyl ester (peptide)
# peptide: Quinaldoyl-V[Asp(OMe)]VA[Asp(OMe)]-{2,6‑difluorophenyl ester}
# SMILES: COC(=O)C[C@H](NC(=O)[C@@H](NC(=O)c1ccc2ccccc2n1)C(C)C)C(=O)N[C@H](C(=O)N[C@@H](C)C(=O)N[C@@H](CC(=O)OC)C(=O)Oc1c(F)cccc1F)C(C)C
# Target: T1, human recombinant caspase-2
# Assay: cell-based or functional assay
binder,measurement,value
B1,IC50 (in vitro inhibition of human recombinant caspase-2),80 nM
